In data set [1] the target is T1, VirB (Shigella flexneri, UniProt P0A247).
T1 construct: purified recombinant wild-type VirB, His6-SUMO tag removed; encoded on virulence plasmid pINV
In words: isothermal titration calorimetry (MST KD […]). The format is binding. On the technique in general: ITC needs no label: the signal is the heat of the interaction.

For data set [2], the target named is T1, VirB. Nature of the data set: microscale thermophoresis; supported by HDX-MS, crosslinking and weak CTPase activity. The format is binding. Background: Microscale thermophoresis detects binding through changes in fluorescence in a small temperature gradient.
Data set [3] addresses T1, VirB. In words: isothermal titration calorimetry. It counts as binding.
The target of a further data set is T2, VirB (Shigella flexneri) (UniProt P0A247).
T2 sequence: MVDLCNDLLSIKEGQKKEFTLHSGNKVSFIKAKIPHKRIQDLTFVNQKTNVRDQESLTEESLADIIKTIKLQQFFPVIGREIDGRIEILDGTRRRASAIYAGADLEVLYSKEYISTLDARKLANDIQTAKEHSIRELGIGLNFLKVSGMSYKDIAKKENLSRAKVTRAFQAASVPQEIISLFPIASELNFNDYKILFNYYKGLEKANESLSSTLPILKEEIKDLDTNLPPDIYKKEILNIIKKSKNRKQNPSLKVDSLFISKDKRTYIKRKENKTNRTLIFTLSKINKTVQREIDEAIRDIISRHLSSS
Nature of the data set: BLI. The note with it: BLI: 25 mM HEPES/NaOH pH 7.5, 150 mM (low stringency) or 500 mM (high stringency) NaCl, 5 mM MgCl2, 1 mM DTT, 10 uM BSA, 0.01% Tween 20, +/-1 mM nucleotide ….

Data set [4] deals with the molecule itself. In words: mass photometry; ~100 nM protein in high-stringency buffer (25 mM HEPES/NaOH pH 7.5, 5 mM MgCl2, 500 mM NaCl, 1 mM DTT), without or with 1 mM CTP; oligomeric state in solution.
Data set [5] deals with the molecule itself. In words: cross-linking; 10 µM protein, room temperature, 25 mM HEPES/NaOH pH 7.5, 500 mM NaCl, 5 mM MgCl2, 0.1 mM EDTA; alone, with 1 mM CTP and/or 1 µM virS DNA oligonucleotide; 1 mM BMOE for 1 min, SDS-PAGE; homodimerization of the two N-terminal NBDs within the VirB dimer (clamp closure).
Data set [6] addresses T3, VirB (Shigella flexneri, UniProt P0A247 1-309).
T3 sequence: T2 sequence
Nature of the data set: BLI; 150 mM NaCl, without and with CTP; BLI: 25 mM HEPES/NaOH pH 7.5, 150 mM (low stringency) or 500 mM (high stringency) NaCl, 5 mM MgCl2, 1 mM DTT, 10 uM BSA, 0.01% Tween 20, +/-1 mM nucleotide; temperature not stated. Conditions: protein: recombinant; tags: none (His6-SUMO removed by Ulp1); chain copies: 2; label: 5' biotin-TEG on strand 1; blunt; one end open.

Positions count from the first letter of the chain named. In names and notes the source's numbering stands.

With `Nc1ccn([C@@H]2O[C@H](COP(=O)(O)OP(=O)(O)O)[C@@H](O)[C@H]2O)c(=O)n1` [CDP], the Kd on VirB [1] was around 91 µM.

Consider `Nc1ccn([C@@H]2O[C@H](COP(=O)(O)OP(=O)(O)OP(=O)(O)O)[C@@H](O)[C@H]2O)c(=O)n1` [CTP], for which the Kd on VirB [2] is 11 µM.

As for `Nc1ccn([C@@H]2O[C@H](COP(=O)(O)OP(=O)(O)OP(O)(O)=S)[C@@H](O)[C@H]2O)c(=O)n1` [CTPγS], the Kd on VirB [3] is around 12 µM.

As to “AATATATTCAATTAATAAATTTAGAAACTTGAGCCTGTTAACATAATCAAATTTTCTTTTGCTGTACATAATATGTACCTCGTGAGCATATGTAGTGCTCGTTTCATCATGAAATCCCACAAGATAAAGTGCCTGATGTATCAGGCTCGGAGTGTTATAGAAAAAGAGAGAACCCTGTTGAATAAGTATCTTTTTTGTTGTAAAACGAGGTACAA (double strand) [closed virS DNA (215 bp)]”, in the data set with VirB (Shigella flexneri), the Kd is 2.3 µM.

In turn, NdeI-opened virS DNA (from 215 bp) came in with a binding signal (fraction of maximum signal on closed DNA) with VirB (Shigella flexneri) of 0.25.

B1: VirB from Shigella flexneri (wild type) (natural protein)
chain: T2 sequence
notes: VirB of S. flexneri, UniProt P0A247; Native C5 was used for BMOE cross-linking; also called WT; wild-type VirB; source: E. coli Rosetta(DE3)pLysS, purified (IMAC, Ulp1 cleavage of the His6-SUMO tag, second IMAC, SEC); not shown: His6, N-terminal, cleaved; SUMO, N-terminal, cleaved
For the molecule B1, the “stoichiometry N” value in data set [4] came to 2.

B2: VirB-C5S/Q15C (natural protein)
chain: T2 sequence with C5S, Q15C
notes: VirB of S. flexneri, UniProt P0A247, lacking the native cysteine at position 5 and carrying an engineered cysteine at position 15; source: E. coli Rosetta(DE3)pLysS, purified (IMAC, Ulp1 cleavage of the His6-SUMO tag, second IMAC, SEC); not shown: His6, N-terminal, cleaved; SUMO, N-terminal, cleaved
As for B2, the binding result in data set [5] is recorded as “binds”.

B3: open virS oligonucleotide (23 bp) (dsDNA)
DNA 1: GCTCGTTTCATCATGAAATCCCA
DNA 2: TGGGATTTCATGATGAAACGAGC
Regarding B3, the binding result with VirB [6] is given as “binds”.

What is called Kd is the constant that tells how readily two partners part at equilibrium. The low end stands for higher affinity, the high end for lower affinity. As usually defined, the stoichiometry N is the number of molecules, sites or subunits per partner or assembly.

For the origin of these results see publication PMC10770331, “The virulence regulator VirB from Shigella flexneri uses a CTP-dependent switch mechanism to activate gene expression” (Nature Communications, 2024).
